The values that follow come from patent US20190367619A1 (ARGENX, published 2019).

The target of test [1] is T1, human galectin-10-His (recombinant human galectin-10 with TEV-cleavable N-terminal His-tag) (human).
T1 construct: SEC-MALLS: dimer in solution; also called Gal10-His; humanGal10-His
T1 chain: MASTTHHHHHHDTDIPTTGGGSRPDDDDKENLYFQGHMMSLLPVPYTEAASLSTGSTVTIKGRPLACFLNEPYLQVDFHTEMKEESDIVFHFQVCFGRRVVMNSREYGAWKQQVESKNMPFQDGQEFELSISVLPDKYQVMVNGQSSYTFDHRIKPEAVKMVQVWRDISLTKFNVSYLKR
The test is described as follows: ELISA, mouse IgG1 on coated galectin-10-His (0.2 ug/mL). The method, boiled down:
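Serial dilutions of each antibody (from 100 nM, 1/4 steps, 12 points) were incubated on plates coated overnight with the antigen. Bound IgG1 detected with anti-mouse Fc-HRP, absorbance at 450 nm (reference 620 nm). EC50 from four-parameter variable-slope non-linear regression of OD values.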
Background: In an ELISA, binding on a coated surface is turned into a signal by an enzyme label.

For test [2], the target named is T1, human galectin-10-His (recombinant …). Put plainly: BLI tandem on galectin-10-His; competitor: saturating 6F06 mIgG1 (10 ug/mL). The method, boiled down:
(§1)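 His-tagged galectin-10 was captured on anti-His sensor tips, saturated with an excess of the first antibody, then moved straight into the competitor antibody at a suboptimal concentration. Competitor binding was read as nm shift; none detected indicates a shared binding site.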

Test [3] shares this target. Put plainly: BLI tandem on galectin-10-His; competitor: saturating 2F09 mIgG1 (10 ug/mL). An outline of the steps:
as §1

The target is the same in test [4]. The test is described as follows: BLI tandem on galectin-10-His; competitor: saturating 6A05 mIgG1 (10 ug/mL). The method, boiled down: as §1
Test [5] has as its target T2, TEV-cleaved wild-type recombinant human galectin-10 (soluble, in Fab complexes, or as recombinant galectin-10 … (human, UniProt Q05315 1-142)).
T2 sequence: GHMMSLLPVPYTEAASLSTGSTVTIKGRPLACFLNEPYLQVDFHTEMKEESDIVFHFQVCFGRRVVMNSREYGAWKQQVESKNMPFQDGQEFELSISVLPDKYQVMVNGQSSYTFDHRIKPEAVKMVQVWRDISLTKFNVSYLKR
The test is described as follows: cell-based or functional assay.

Test [6] addresses T1, human galectin-10-His (recombinant …). The test is described as follows: BLI tandem on galectin-10-His; isotype control as saturating antibody (10 ug/mL). An outline of the steps:
as §1

Test [7] shares this target. The test is described as follows: BLI tandem on galectin-10-His; competitor: saturating 6A08 mIgG1 (10 ug/mL). An outline of the steps:
as §1

B1: 1D11 mouse IgG1 (antibody, V domains shown)
VH: QVQLVESGGGLVQPGGSLRLSCAASGFTFDDYAMSWVRQAPGKGLEWVSGISWNGGSTYYAESMKGRFTISRDNAKNTLYLQMNSLKSEDTAVYYCAKDRNLGYRLGYPYDYWGQGTQVTVSS
VL: QSVLTQPPSVSGSPGETVTISCAGTSSDVGYGNYVSWYQQLPGMAPRLLIYEVNKRASGITDRFSGSKSGNTASLTISGLQSEDEGDYYCASYRSSNNAVFGGGTHLTVL
notes: VH on mouse IgG1 heavy chain constant domains (CH1-CH2-CH3), VL on mouse lambda light chain constant domain; also called 1D011; 1D11 mIgG1
One may read the EC50 as the concentration at which the effect is half-maximal. With B1, in test [1], the Bmax worked out at 1.5 OD. The EC50 in test [1] turned out to be 0.1 nM. Besides, the “binding signal (nm)” value in test [2] is 0.03 nm; in test [3], 0.02 nm; in test [4] it was 0.06 nm; in test [6], 1.18 nm; in test [7], 0.01 nm. In addition, in test [5], the “dissolution of in vitro grown Gal10 crystals (spinning disk confocal microscopy)” value was at most 90 min.
